Patent US20260125476A1 (INTERVET, published 2026)
Where two headings read alike, the source gives them in different places.

T1: canine CTLA-4 (cCTLA-4) recombinant protein (canine, UniProt Q9XSI1 38-161, limits assumed)
T1 construct: also called canine Cytotoxic T-Lymphocyte-Associated protein 4; CD152
T1 chain: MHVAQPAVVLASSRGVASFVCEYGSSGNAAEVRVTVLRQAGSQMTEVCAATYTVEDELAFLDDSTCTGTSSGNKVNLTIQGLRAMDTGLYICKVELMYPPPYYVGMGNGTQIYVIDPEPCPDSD

T2: canine CTLA-4 expressed on CHO-K1 cells (canine, UniProt Q9XSI1 38-223)
T2 construct: also called CHO-cCTLA-4; CHO-K1-cCTLA-4 cells
T2 chain: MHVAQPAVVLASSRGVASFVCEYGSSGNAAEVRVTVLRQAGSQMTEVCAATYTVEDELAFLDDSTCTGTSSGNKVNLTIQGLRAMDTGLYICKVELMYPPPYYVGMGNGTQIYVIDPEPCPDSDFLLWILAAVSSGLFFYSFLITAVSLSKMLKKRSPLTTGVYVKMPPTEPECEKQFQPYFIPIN


What was measured:
[1] = target: T1, canine CTLA-4 (cCTLA-4) recombinant …; experiment: ELISA on coated cCTLA-4, OD450/540 ('xCTLA4 ELISA', Example 7)
[2] = target: T1, canine CTLA-4 (cCTLA-4) recombinant …; experiment: blocking ELISA: cCTLA-4 coated at 200 ng/well, antibody dilutions mixed with 100 ng/well biotinylated canine CD80 (the blocked ligand), streptavidin-HRP, OD450/540 (Example 4)
Procedure: (§1) Coat 200 ng/well cCTLA-4 in an immunoplate and incubate the plate at 4° C. overnight. […] Wash the plate 3 times by PBS with 0.05% Tween 20 (PBST). […] Block the plate with 0.5% BSA in PBS for 45-60 min at room temperature. […] Wash the plate 3 times by PBST. […] Next mixed with the antibodies. […] Transferred the mixture into each column or row of the immunoplate, and incubated the plate for 45-60 min at room temperature. […] Washed the plate 3 times with PBST. […] Added 1:2000 diluted horseradish peroxidase conjugated streptavidin into each well of the plate, and incubated the plate for 45-60 min at room temperature. […] Washed the plate 3 times with PBST. […] Added the TMB Substrate into each well of the plate, and incubated the plate for 10 to 15 minutes at room temperature to allow for color development. […] Added 100 μL of 1.5 M phosphoric acid into each well to stop the reaction. […] Read the plate at 450 nm with 540 nm reference wavelength.

[3] = target: T1, canine CTLA-4 (cCTLA-4) recombinant …; experiment: ELISA: cCTLA-4 coated at 200 ng/well, three-fold antibody dilutions, HRP anti-canine IgG Fc, OD450/540 (Example 3)
[4] = target: T1, canine CTLA-4 (cCTLA-4) recombinant …; experiment: blocking ELISA: cCTLA-4 coated at 200 ng/well, antibody dilutions mixed with 100 ng/well biotinylated canine CD86 (the blocked ligand), streptavidin-HRP, OD450/540 (Example 4)
Procedure: as §1

[5] = target: T2, canine CTLA-4 expressed on CHO-K1 cells; experiment: flow cytometry on CHO-K1 cells stably expressing cCTLA-4, labelled anti-canine IgG, FL4-H histogram (Example 5); antibody concentration not given
[6] = target: T2, canine CTLA-4 expressed on CHO-K1 cells; experiment: as above
Source text: (§2) A CHO-K1 cell line stably expressing cCTLA-4 was generated. The cells were used to test antibody binding and blocking activity in FACS flow assay. […] Grew CHO-K1-cCTLA-4 cells in the culture medium in T-75 flask. The cells are passaged when the cell confluency reaches to 90%. […] Detached the cells by Trypsin-EDTA solution, resuspended the cells in culture medium, and counted the viable cells with more than 95% viability. […] Spun down the cells, aspirated the supernatant, then resuspended the cells into FACS buffer (Thermo Fisher Scientific, Cat #BDB554656) to 1×10⁷ cells/mL. […] Added antibody into 100 μL of the cells, incubated at room temperature for 30 min with gentle shaking. […] Washed the cells by 3×250 μL of FACS buffer, and resuspended the cells into 100 μL FACS buffer. […] Stained the cells with FITC conjugated anti-canine IgG, incubated at room temperature for 30 min with gentle shaking. […] Washed the cells with 3×250 μL of FACS buffer and resuspended the cells into 500 μL FACS buffer. […] Read 10,000 cells by flow cytometry.

[7] = target: T2, canine CTLA-4 expressed on CHO-K1 cells; experiment: as above
Source text: as §2

[8] = target: T2, canine CTLA-4 expressed on CHO-K1 cells; experiment: as above
Source text: as §2

Row | Binder | EC50 (read off the curve) [1] [µg/mL] | IC50 (read off the curve) [2] [µg/mL] | EC50 (read off the curve) [3] [µg/mL] | IC50 (read off the curve) [4] [µg/mL] | binding result [5] | binding result [6] | binding result [7] | binding result [8]
1 | Caninized c12B3L3H3 (antibody, V domains shown, also called caninized 12B3 VL3/VH3) VH: EIQLVQSGGDLVKPGGSVRLSCKASGYTFTNYGMNWVKQAPGKGLQWMGWINTYTGEPTYADDFKGRFTFSLDNAKNTAYLQINSLRAEDTAVYFCARRSIYYPYWGQGTTLTVSS VL: DVLMTQTPLSLSVSPGEPASISCRSSQSIVYSNGNTYLEWYLQKPGQSPKLLIYKVSNRFSGVPDRFSGSGSGTDFTLRISRVEADDAGVYYCFQGSHVPWTFGGGTKLELKR | ~0.002 |  |  |  |  |  |  | 
2 | Caninized c12B3L2H3 (antibody, V domains shown, also called caninized 12B3) VH: EIQLVQSGGDLVKPGGSVRLSCKASGYTFTNYGMNWVKQAPGKGLQWMGWINTYTGEPTYADDFKGRFTFSLDNAKNTAYLQINSLRAEDTAVYFCARRSIYYPYWGQGTTLTVSS VL: DIVMTQTPLSLSVSPGEPASISCRSSQSIVYSNGNTYLEWYQQKPGQSPKLLIYKVSNRFSGVPDRFSGSGSGTDFTLRISRVEADDAGVYYCFQGSHVPWTFGGGTKLEIKR | ~0.002 |  |  |  |  |  |  | 
3 | Mouse-canine chimeric antibody 22A11 (antibody, V domains shown, Mouse variable regions fused to canine constant heavy chain and canine kappa; HEK 293, protein A) VH: QVQLQQPGTELVKPGASVKLSCKASGYTFTSYWMHWVKQRPGQGLEWIGNINPSNGGTRFNEKFKNKATLTEDKSSSTAYMQLSSLTSEDSAVYYCARSNYGSGWAWFAYWGQGTLVTVSA VL: DIQMNQSPSSLSASLGDTITITCHASQNINVWLSWYQQKPGNIPKLLIYKSSNLHTGVPSRFSGSGSGTGFTLTISSLQPEDIATYYCQQGQSYPWTFGGGTKLEIKR |  | ~0.2 | ~0.0007 | ~0.3 | binds |  |  | 
4 | Mouse-canine chimeric antibody 27G12 (antibody, V domains shown, Mouse variable regions fused to canine constant heavy chain and canine kappa; HEK 293, protein A) VH: QIQLVQSGPELKKPGETVKISCKASGYTFTTYGVSWVKQAPGKGLRWMGWINTYSGMPTYVDDFKGRFAFSLETSASTAFLQINNLKNEDTAIYFCARRGISFDYWGQGTTLTVSS VL: DVLMTQTPLSLPVSLGDHASISCKSSQSIVYINGNTYLEWYLQKPGQSPKLLIYKVSKRFSGVPDRFSGSGSGTDFTLKISRVEAEDLGVYYCFQGSHVPWTFGGGTKLEIKR |  | ~0.2 | ~0.002 | ~0.1 |  | binds |  | 
5 | Mouse-canine chimeric antibody 12B3 (antibody, V domains shown, expressed in HEK 293 cells, purified on protein A; also called chimera of 12B3) VH: QIQLVQSGPELKKPGETVKISCKASGYTFTNYGMNWVKQAPGKGLKWMGWINTYTGEPTYADDFKGRFAFSLETSASTAYLQINNLKNEDMATYFCARRSIYYPYWGQGTTLTVSS VL: DVLMTQTPLSLPVSLGDQASISCRSSQSIVYSNGNTYLEWYLQKPGQSPKLLIYKVSNRFSGVPDRFSGSGSGTDFTLKISRVEAEDLGVYYCFQGSHVPWTFGGGTKLEIKR | ~0.001 | ~0.1 | ~0.005 | ~0.1 |  |  | binds | 
6 | Caninized c39A11L3H3 (antibody, V domains shown, also called caninized 39A11 VL3/VH3) VH: EVKLVESGGDLVKPGGSLRLSCATSGFTFSDYYMSWVRQAPGKALEWMGFIRNKANGYTTEYSASLKGRFTISRDNAKNMLYLQMNSLRAEDTAVYYCVRFGLMYYFDYWGQGTTLTVSS VL: ENVLTQSPASLSLSPGEKVTITCRASSSVSSSYLHWYQQKPGQSPKLWIFSTSNLASGVPSRFSGSGSGTSYSFTISSLEPEDVAVYYCQQYSGLPLTFGGGTKLELKR | ~0.004 |  |  |  |  |  |  | 
7 | Caninized c39A11L2H3 (antibody, V domains shown, written here as L2H3; also called caninized 39A11) VH: EVKLVESGGDLVKPGGSLRLSCATSGFTFSDYYMSWVRQAPGKALEWMGFIRNKANGYTTEYSASLKGRFTISRDNAKNMLYLQMNSLRAEDTAVYYCVRFGLMYYFDYWGQGTTLTVSS VL: ENVLTQSPASLSLSQEEKVTITCRASSSVSSSYLHWYQQKPGQAPKLWIFSTSNLASGVPSRFSGSGSGTDYSFTISSLEPEDVAVYYCQQYSGLPLTFGGGTKLELKR | ~0.007 |  |  |  |  |  |  | 

Continued, values first:

Row | EC50 (read off the curve) [1] [µg/mL] | IC50 (read off the curve) [2] [µg/mL] | EC50 (read off the curve) [3] [µg/mL] | IC50 (read off the curve) [4] [µg/mL] | binding result [5] | binding result [6] | binding result [7] | binding result [8] | Binder
8 |  | ~0.2 | ~0.002 | ~0.1 |  |  |  |  | Mouse-canine chimeric antibody 45A9 (antibody, V domains shown, Mouse variable regions fused to canine constant heavy chain and canine kappa; HEK 293, protein A) VH: QIQLVQSGPELKKPGETVKISCKASGYTFTNYGMNWVKQAPGKGLKWMGWINTYTGEPTYADDFKGRFAFSLETSASTAYLQINNLKNEDTATYFCARRGTYYRPWGQGTTLTVSS VL: DVLMTQTPLSLPVSLGDQASISCRSSQSIVYSHGNTYLEWYLQKPGQSPKVLIYKVSNRFSGVPDRFSGSGSGTDFTLKISRVEAEDLGVYYCFQGSHVPWTFGGGTKLEIKR
9 |  | ~0.2 | ~0.002 | ~0.1 |  |  |  | binds | Mouse-canine chimeric antibody 110E3 (antibody, V domains shown, Mouse variable regions fused to canine constant heavy chain and canine kappa; HEK 293, protein A) VH: QIQLVQSGPELKKPGETVKISCKASGYTFTNYGMNWVKQAPGKGLKWMGWINTYTGEPTYADDFKGRVAFSLETSASTAFLQINNLKNEDTATYFCARRGVRLDYWGQGTTLTVSS VL: DVLMTQTPLSLPVSLGDQASISCRSSQSIVYISGSTYLEWYLQKPGQSPKLLIYKVSSRFSGVPDRFSGSGSGTDFTLKISRVEAEDLGVYYCFQGSHVPWTFGGGTKLEIKR
10 | ~0.004 | ~0.2 | ~0.009 | ~0.1 |  |  |  |  | Mouse-canine chimeric antibody 39A11 (antibody, V domains shown, Mouse variable regions fused to canine constant heavy chain and canine kappa; HEK 293, protein A; also called chimera of 39A11) VH: EVKLVESGGGLVQPGGSLSLSCATSGFTFSDYYMSWVRQSPGKALEWMGFIRNKANGYTTEYSASLKGRFTISRDNSQSILYLQMNVLRAEDSATYYCVRFGLMYYFDYWGQGTTLTVSS VL: ENVLIQSPAIMSASPGEKVTMTCRASSSVSSSYLHWYQQKSGASPKLWIFSTSNLASGVPARFSGSGSGTSYSLTINSVEAEDAATYYCQQYSGLPLTFGGGTKLEIKR
